Read-outs that look alike come from different tables or passages of the source.
T1: recombinant bovine FcgR2 (bovine, UniProt Q28110 43-225, limits assumed, biotin on the BAP tag (BirA))
T1 construct: also called bFcgR2; bFcgRII
T1 sequence: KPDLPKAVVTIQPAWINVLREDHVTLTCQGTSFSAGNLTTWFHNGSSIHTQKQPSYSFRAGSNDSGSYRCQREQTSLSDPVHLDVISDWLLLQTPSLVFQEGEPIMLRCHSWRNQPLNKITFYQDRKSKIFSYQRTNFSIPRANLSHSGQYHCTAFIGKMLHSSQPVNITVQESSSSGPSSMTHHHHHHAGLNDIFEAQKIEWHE

T2: recombinant bovine FcgR3 (bovine, UniProt P79107 17-208, limits assumed, biotin on the BAP tag (BirA))
T2 construct: also called bFcgR3; bFcgRIII
T2 sequence: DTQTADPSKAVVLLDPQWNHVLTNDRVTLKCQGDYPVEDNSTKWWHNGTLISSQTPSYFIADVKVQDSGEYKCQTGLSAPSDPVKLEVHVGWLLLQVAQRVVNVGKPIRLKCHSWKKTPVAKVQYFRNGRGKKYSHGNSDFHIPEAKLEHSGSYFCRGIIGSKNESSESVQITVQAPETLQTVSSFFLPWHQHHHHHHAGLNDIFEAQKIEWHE


Key:
[1] = biological target: T3, complement component C1q (in bovine complement preserved serum) (bovine, UniProt Q5E9E3 23-244; Q2KIV9 23-247); assay: cell-based or functional assay
T3 sequence (Q5E9E3 23-244, chain 1 of 2): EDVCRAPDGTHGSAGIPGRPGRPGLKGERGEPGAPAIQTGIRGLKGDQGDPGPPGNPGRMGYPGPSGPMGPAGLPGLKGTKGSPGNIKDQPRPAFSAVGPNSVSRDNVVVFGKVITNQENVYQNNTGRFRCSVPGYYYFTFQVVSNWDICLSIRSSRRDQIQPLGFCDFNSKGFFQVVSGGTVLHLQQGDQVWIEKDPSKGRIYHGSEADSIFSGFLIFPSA
T3 sequence (Q2KIV9 23-247, chain 2 of 2): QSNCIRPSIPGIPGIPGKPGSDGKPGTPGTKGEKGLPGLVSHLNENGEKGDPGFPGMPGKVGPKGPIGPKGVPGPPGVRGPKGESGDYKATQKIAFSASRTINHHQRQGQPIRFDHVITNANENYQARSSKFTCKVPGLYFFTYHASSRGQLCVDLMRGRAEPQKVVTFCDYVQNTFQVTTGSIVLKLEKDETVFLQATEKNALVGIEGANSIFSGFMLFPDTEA

[2] = biological target: T4, recombinant bovine FcgR1 (bovine, biotin on the BAP tag (BirA)); assay: SPR Biacore, biotinylated receptor on SA sensor, pH 7.4, 15 C
T4 construct: also called bFcgR1; bFcgRI
Experimental: (§1) A Biacore SPR binding assay was designed to test the affinity of bovine IgG subclasses to bFcgR1, bFcgR2 and bFcgR3. All reported KD's were measured by Biacore (Cytiva, Marlborough, MA, USA) using series S SA sensor. Biotinylated-bovine FcgR1, R2 and R3 were captured on the sensor surface using a modified SA capture method to reach the desired surface density. 10 mM HEPES, 150 mM NaCl, 3 mM EDTA, 0.05% v/v surfactant P20, pH7.4 buffer was used as the running and titration buffer. Various concentrations of bovine CTLA4-Fc fusions or mAbs were titrated and flowed over the receptor surface and affinities were determined using Biacore T200 Evaluation software (Cytiva, Marlborough, MA, USA) with 1:1 binding model. The method of double referencing has been applied where the reference flow cell was subtracted from the flow cell containing immobilized receptors and blank runs containing buffer only were subtracted out from all runs. Flow cells were regenerated using 10 mM Glycine pH1.5. Runs were performed at 15° C.
(§2) The ability to knock out binding to bovine Fc gamma receptors was evaluated by comparing SPR Biacore bFcgR affinity of bIgG1a and bIgG1b wildtype Fc to the bIgG1a and bIgG1b mutations, described above. All mutations made to bIgG1 are identical for the a and b allotypes. Biacore methods for bFcgR1, R2, and R3 were performed as described in Example 1.

[3] = biological target: T1, recombinant bovine FcgR2; assay: as above
Experimental: as §1, §2

[4] = biological target: T2, recombinant bovine FcgR3; assay: as above
Experimental: as §1, §2

[5] = biological target: T1, recombinant bovine FcgR2; assay: as above; remark: listed apart in the source
Experimental: as §1
Biacore methods for bFcgR1, R2, and R3 were performed as described in Examples above. […] Although the two allotypes have different KDs for bFcgR2 and bFcgR3, both wildtype allotypes do bind. All of the mutations, bIgG3Win, bIgG3WinSAS, bIgG3SAS and bIgG3SAP for both the a and b allotypes knocked down binding to bFcgR1, bFcgR2 and bFcgR3 to negligible affinities. Thus, for knocking out receptor binding, the two allotypes compare similarly.

[6] = biological target: T3, complement component C1q (in bovine …); assay: cell-based or functional assay; remark: listed apart in the source

Row | Kd [2] | binding result [3] | binding result [5] | Binder | also measured
1 | 0.463 nM |  |  | CTLA4 Fc bIgG1b (Fc fusion, No linker; also called bIgG1b wildtype; CTLA4 Fc bIgG1b wildtype) DMHVAQPAVVLASSRGVASFVCEYGSSGNAAEVRVTVLRQAGSQMTEVCAATYTVEDELAFLDDSTCTGTSSGNKVNLTIQGLRAMDTGLYICKVELMYPPPYYVGMGNGTQIYVIDPEPCPDSDDPTCKPSPCDCCPPPELPGGPSVFIFPPKPKDTLTISGTPEVTCVVVDVGHDDPEVKFSWFVDDVEVNTATTKPREEQFNSTYRVVSALRIQHQDWTGGKEFKCKVHNEGLPAPIVRTISRTKGPAREPQVYVLAPPQEELSKSTVSLTCMVTSFYPDYIAVEWQRNGQPESEDKYGTTPPQLDADSSYFLYSKLRVDRNSWQEGDTYTCVVMHEALHNHYTQKSTSKSAGK | CDC EC50 Value [1]: 0.036 µg/mL; Kd [3]: 2.48 nM; Kd [4]: 13.7 nM
2 |  | no binding |  | CTLA4 Fc bIgG1bWinSAS (Fc fusion, No linker) DMHVAQPAVVLASSRGVASFVCEYGSSGNAAEVRVTVLRQAGSQMTEVCAATYTVEDELAFLDDSTCTGTSSGNKVNLTIQGLRAMDTGLYICKVELMYPPPYYVGMGNGTQIYVIDPEPCPDSDDPTCKPSPCDCCPPPEAAGAPSVFIFPPKPKDTLTISGTPEVTCVVVDVGHDDPEVKFSWFVDDVEVNTATTKPREEQFNSTYRVVSALRIQHQDWTGGKEFKCKVHNEGLSASIVRTISRTKGPAREPQVYVLAPPQEELSKSTVSLTCMVTSFYPDYIAVEWQRNGQPESEDKYGTTPPQLDADSSYFLYSKLRVDRNSWQEGDTYTCVVMHEALHNHYTQKSTSKSAGK | 
3 |  | no binding |  | CTLA4 Fc bIgG1bSAS (Fc fusion, No linker) DMHVAQPAVVLASSRGVASFVCEYGSSGNAAEVRVTVLRQAGSQMTEVCAATYTVEDELAFLDDSTCTGTSSGNKVNLTIQGLRAMDTGLYICKVELMYPPPYYVGMGNGTQIYVIDPEPCPDSDDPTCKPSPCDCCPPPELPGGPSVFIFPPKPKDTLTISGTPEVTCVVVDVGHDDPEVKFSWFVDDVEVNTATTKPREEQFNSTYRVVSALRIQHQDWTGGKEFKCKVHNEGLSASIVRTISRTKGPAREPQVYVLAPPQEELSKSTVSLTCMVTSFYPDYIAVEWQRNGQPESEDKYGTTPPQLDADSSYFLYSKLRVDRNSWQEGDTYTCVVMHEALHNHYTQKSTSKSAGK | 
4 | 3.73 nM |  |  | CTLA4 Fc bIgG1bWin (Fc fusion, No linker) DMHVAQPAVVLASSRGVASFVCEYGSSGNAAEVRVTVLRQAGSQMTEVCAATYTVEDELAFLDDSTCTGTSSGNKVNLTIQGLRAMDTGLYICKVELMYPPPYYVGMGNGTQIYVIDPEPCPDSDDPTCKPSPCDCCPPPEAAGAPSVFIFPPKPKDTLTISGTPEVTCVVVDVGHDDPEVKFSWFVDDVEVNTATTKPREEQFNSTYRVVSALRIQHQDWTGGKEFKCKVHNEGLPAPIVRTISRTKGPAREPQVYVLAPPQEELSKSTVSLTCMVTSFYPDYIAVEWQRNGQPESEDKYGTTPPQLDADSSYFLYSKLRVDRNSWQEGDTYTCVVMHEALHNHYTQKSTSKSAGK | CDC EC50 Value [1]: 0.015 µg/mL; Kd [3]: 3.24 nM
5 |  | no binding |  | CTLA4 Fc bIgG1bSAP (Fc fusion, No linker) DMHVAQPAVVLASSRGVASFVCEYGSSGNAAEVRVTVLRQAGSQMTEVCAATYTVEDELAFLDDSTCTGTSSGNKVNLTIQGLRAMDTGLYICKVELMYPPPYYVGMGNGTQIYVIDPEPCPDSDDPTCKPSPCDCCPPPELPGGPSVFIFPPKPKDTLTISGTPEVTCVVVDVGHDDPEVKFSWFVDDVEVNTATTKPREEQFNSTYRVVSALRIQHQDWTGGKEFKCKVHNEGLSAPIVRTISRTKGPAREPQVYVLAPPQEELSKSTVSLTCMVTSFYPDYIAVEWQRNGQPESEDKYGTTPPQLDADSSYFLYSKLRVDRNSWQEGDTYTCVVMHEALHNHYTQKSTSKSAGK | 
6 | 70.4 nM |  |  | CTLA4 Fc bIgG1bWinSS (Fc fusion, No linker) DMHVAQPAVVLASSRGVASFVCEYGSSGNAAEVRVTVLRQAGSQMTEVCAATYTVEDELAFLDDSTCTGTSSGNKVNLTIQGLRAMDTGLYICKVELMYPPPYYVGMGNGTQIYVIDPEPCPDSDDPTCKPSPCDCCPPPEAAGAPSVFIFPPKPKDTLTISGTPEVTCVVVDVGHDDPEVKFSWFVDDVEVNTATTKPREEQFNSTYRVVSALRIQHQDWTGGKEFKCKVHNEGLPSSIVRTISRTKGPAREPQVYVLAPPQEELSKSTVSLTCMVTSFYPDYIAVEWQRNGQPESEDKYGTTPPQLDADSSYFLYSKLRVDRNSWQEGDTYTCVVMHEALHNHYTQKSTSKSAGK | 
7 |  |  | no binding | CTLA4 Fc bIgG3bSAP (Fc fusion, No linker) DMHVAQPAVVLASSRGVASFVCEYGSSGNAAEVRVTVLRQAGSQMTEVCAATYTVEDELAFLDDSTCTGTSSGNKVNLTIQGLRAMDTGLYICKVELMYPPPYYVGMGNGTQIYVIDPEPCPDSDTARRPVPTTPKTTIPPGKPTTQESEVEKTPCQCSKCPEPLGGLSVFIFPPKPKDTLTISGTPEVTCVVVDVGQDDPEVQFSWFVDDVEVHTARTKPREEQFNSTYRVVSALRIQHQDWLQGKEFKCKVNNKGLSAPIVRTISRTKGQAREPQVYVLAPPREELSKSTLSLTCLITGFYPEEIDVEWQRNGQPESEDKYHTTAPQLDADGSYFLYSRLRVNKSSWQEGDHYTCAVMHEALRNHYKEKSISRSPGK | 
8 |  |  | no binding | CTLA4 Fc bIgG3bWin (Fc fusion, No linker) DMHVAQPAVVLASSRGVASFVCEYGSSGNAAEVRVTVLRQAGSQMTEVCAATYTVEDELAFLDDSTCTGTSSGNKVNLTIQGLRAMDTGLYICKVELMYPPPYYVGMGNGTQIYVIDPEPCPDSDTARRPVPTTPKTTIPPGKPTTQESEVEKTPCQCSKCPEAAGALSVFIFPPKPKDTLTISGTPEVTCVVVDVGQDDPEVQFSWFVDDVEVHTARTKPREEQFNSTYRVVSALRIQHQDWLQGKEFKCKVNNKGLPAPIVRTISRTKGQAREPQVYVLAPPREELSKSTLSLTCLITGFYPEEIDVEWQRNGQPESEDKYHTTAPQLDADGSYFLYSRLRVNKSSWQEGDHYTCAVMHEALRNHYKEKSISRSPGK | CDC EC50 Value [6]: 0.062 µg/mL
9 |  |  | no binding | CTLA4 Fc bIgG3bWinSAS (Fc fusion, No linker) DMHVAQPAVVLASSRGVASFVCEYGSSGNAAEVRVTVLRQAGSQMTEVCAATYTVEDELAFLDDSTCTGTSSGNKVNLTIQGLRAMDTGLYICKVELMYPPPYYVGMGNGTQIYVIDPEPCPDSDTARRPVPTTPKTTIPPGKPTTQESEVEKTPCQCSKCPEAAGALSVFIFPPKPKDTLTISGTPEVTCVVVDVGQDDPEVQFSWFVDDVEVHTARTKPREEQFNSTYRVVSALRIQHQDWLQGKEFKCKVNNKGLSASIVRTISRTKGQAREPQVYVLAPPREELSKSTLSLTCLITGFYPEEIDVEWQRNGQPESEDKYHTTAPQLDADGSYFLYSRLRVNKSSWQEGDHYTCAVMHEALRNHYKEKSISRSPGK | 
10 |  |  | no binding | CTLA4 Fc bIgG3bSAS (Fc fusion, No linker) DMHVAQPAVVLASSRGVASFVCEYGSSGNAAEVRVTVLRQAGSQMTEVCAATYTVEDELAFLDDSTCTGTSSGNKVNLTIQGLRAMDTGLYICKVELMYPPPYYVGMGNGTQIYVIDPEPCPDSDTARRPVPTTPKTTIPPGKPTTQESEVEKTPCQCSKCPEPLGGLSVFIFPPKPKDTLTISGTPEVTCVVVDVGQDDPEVQFSWFVDDVEVHTARTKPREEQFNSTYRVVSALRIQHQDWLQGKEFKCKVNNKGLSASIVRTISRTKGQAREPQVYVLAPPREELSKSTLSLTCLITGFYPEEIDVEWQRNGQPESEDKYHTTAPQLDADGSYFLYSRLRVNKSSWQEGDHYTCAVMHEALRNHYKEKSISRSPGK | 
